Laboratory results taken from article PMC4211656.

Test system: CYT-19
Experiment: ensemble unwinding (CYT-19 concentration dependence)
Conditions: kmax 0.86 min-1; functional K1/2 for unwinding; substrate probably -1d,rSA5 = CCCUCdUAAAAA (2'-deoxy at U -1); Ribozyme buffer for complex assembly: 50 mM MOPS pH 7.0, 10 mM MgCl2, 25 C; exact CYT-19/Ded1 assay buffer not in the material

## L-16/ScaI group I ribozyme with standard 11-bp P1 (ensemble)
  K half: 5.7 µM
